Reference: publication doi:10.1101/2023.10.09.561567 (bioRxiv, 2023)
Values belong to the molecule of their own block, whether it stands above or below them.

Experiments:
[1] = biological target: IL-33 released from CMT-64 cells (mouse (endogenous in CMT-64)) (UniProt Q8BVZ5); test: ELISA
[2] = biological target: HpARI2 (Heligmosomoides polygyrus bakeri); test: SPR
[3] = biological target: HpARI1 (Heligmosomoides polygyrus bakeri); test: SPR
[4] = biological target: HpARI3 (Heligmosomoides polygyrus bakeri); test: SPR
[5] = biological target: T1, IL-33 released from CMT-64 cells (mouse (endogenous in CMT-64), UniProt Q8BVZ5 1-266); test: ELISA
T1 sequence (looked up): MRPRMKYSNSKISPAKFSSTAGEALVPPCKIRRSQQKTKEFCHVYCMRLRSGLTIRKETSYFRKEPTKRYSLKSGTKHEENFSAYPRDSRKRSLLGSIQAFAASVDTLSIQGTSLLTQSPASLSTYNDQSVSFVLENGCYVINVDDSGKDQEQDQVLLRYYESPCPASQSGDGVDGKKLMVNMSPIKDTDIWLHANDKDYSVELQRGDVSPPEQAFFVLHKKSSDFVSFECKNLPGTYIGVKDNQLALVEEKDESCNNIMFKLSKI

Molecule: HpARI1 (natural protein)
IC50 [1]: 0.8 nM

Molecule: mouse IL-33 (purified) (from UniProt Q8BVZ5 1-266) (ligand)
Kd [2]: 0.04 nM
Kd [3]: 0.04 nM
Kd [4]: 0.4 nM

Results, then the molecule that gave them:

IC50 [1]: 0.8 nM
Molecule: HpARI2 (natural protein)

IC50 [5]: ~6 nM
B1: HpARI3 (natural protein, Heligmosomoides polygyrus bakeri, UniProt A0A183GRJ4 1-248, looked up)
chain: SLGCKFTDVEKDKGYTGMLVGGKRRESAANGQKVELVCGRGNHNYTCKSGILTEESYRQGRCGCEGILQMLLDKPKDSPMYDSVTYDPTPNTPTTVGKDGIWNGVDYRNGSTVRPYCDTGPIINGSPKAVCVSGKWVPKLGDCPKMCSISSLKENGKFLNVTATTTGDELNPRPREQTLIPIVRKVDKDKVQHGVKVVALCKAKYSTTAAENVQKFECDNGKWKPKPVPCS
modifications: chemically biotinylated with EZ-Link Sulfo-NHS-Biotin (for SPR only)
